From US20160152728A1 (AFFEMED, published 2016)

B1: Li3G30 scFv (parental) (scFv, V domains shown)
VH: EVQLVQSGAEVKKPGESLKISCKGSGYSFTSYWIGWVRQMPGKGLEWMGIIYPGDSDTRYSPSFQGQVTISADKSISTAYLQWSSLKASDTAMYYCARLGSSWTNDAFDIWGQGTMVTVSS
VL: SYELTQPPSVSVSPGQTARITCSGDALPKQYAYWYQQKPGQAPVLVIYKDSERPSGIPERFSGSSSGTTVTLTISGVQAEDEADYYCQSADSSGTPLIVFGTGTKLTVL
notes: One-chain scFv, His-tagged; also called parental scFv; starting clone Li3G30
B2: EGFRvIII/CD3 TandAb with EGFRvIII binding domain ABC469, domain order (iv) VH^EGFRvIII-VL^CD3-VH^CD3-VL^EGFRvIII (bispecific antibody, part only; not given: CD3 domain and linkers, not shown: small tags and cut ends)
chain, part: EVQLVQSGAEVKKPGESLKISCKGSGYSFNSYWIGWVRQMPGKGLEWMGIIYPGDSDTRYSPSFQGQVTISADKSISTAYLQWSSLKASDTAMYYCARLGSSWTNDAFDIWGQGTLVTVSSLTQPPSYESVSVSPGQTARITCSGDTLPKQYAYWYQQKPGQAPVLVIYKDSERPSGIPERFSGSSSGTTVTLTISGVQAEDEADYYCQSVDVSGTYVVFGGGTKLTVL

Key:
[1] = target: T1, EGFRvIII expressed on cells (CHO^EGFRvIII, F98^EGFRvIII) (UniProt P00533 25-1210); assay: flow cytometry on CHO^EGFRvIII cells; scFv detected with anti-His followed by FITC-conj. goat anti-mouse IgG, mean fluorescence intensity
T1 construct: whole, on cells; the vIII deletion must be applied; also called deletion mutant EGFRvIII
Experimental: (§1) After a second washing cycle, the cells were incubated with 0.1 mL of 15 μg/mL FITC-conjugated goat anti-mouse IgG antibodies under the same conditions as before. As a control, cells were incubated with the anti-His IgG 13/45/31 followed by the FITC-conjugated goat anti-mouse IgG antibodies without scFvs. The cells were then washed again and resuspended in 0.2 mL of FACS buffer containing 2 μg/mL propidium iodide in order to exclude dead cells. The fluorescence of 1×10⁴ living cells was measured using a Beckman-Coulter FC500 MPL flow cytometer using the MXP software (Beckman-Coulter, Krefeld, Germany) or a Millipore Guava EasyCyte flow cytometer using the Incyte software (Merck Millipore, Schwalbach, Germany). Mean fluorescence intensities of the cell samples were calculated using CXP software (Beckman-Coulter, Krefeld, Germany) or Incyte software (Merck Millipore, Schwalbach, Germany).
(§2) In case of analysis with Beckman-Coulter FC500 MPL flow cytometer 0.5×10⁶ cells/staining and in case of Millipore Guava EasyCyte flow cytometer only 0.25×10⁶ cells/staining were used.

[2] = target: T2, wild type EGFR expressed on cells (CHO^EGFR, F98^EGFR) (human, UniProt P00533 25-1210); assay: flow cytometry on F98^EGFR cells; scFv detected with anti-His followed by FITC-conj. goat anti-mouse IgG
T2 construct: whole, on cells; also called native EGFR; EGFRwt
Experimental: as §1, §2

[3] = target: T1, EGFRvIII expressed on cells …; assay: flow cytometry on F98^EGFRvIII cells; scFv detected with anti-His followed by FITC-conj. goat anti-mouse IgG, mean fluorescence intensity
Experimental: as §1, §2

[4] = target: T1, EGFRvIII expressed on cells …; assay: cell-based or functional assay
[5] = target: EGFRvIII-Fc fusion antigen (human, UniProt P00533 25-645); assay: ELISA on coated EGFRvIII-Fc; TandAb detected with Protein L-HRP, Abs(450nm) [EGFRvIII binding]
[6] = target: CD3γε recombinant antigen (UniProt P09693); assay: ELISA on coated CD3γε antigen; TandAb detected with Protein L-HRP, Abs(450nm) [CD3γε binding]
Chain of CD3γε recombinant antigen (P09693 23-116, chain 1 of 2): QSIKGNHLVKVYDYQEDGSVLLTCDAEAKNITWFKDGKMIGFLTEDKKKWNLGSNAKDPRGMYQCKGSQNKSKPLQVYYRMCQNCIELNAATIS
Chain of CD3γε recombinant antigen (P07766 23-126, chain 2 of 2, further chain): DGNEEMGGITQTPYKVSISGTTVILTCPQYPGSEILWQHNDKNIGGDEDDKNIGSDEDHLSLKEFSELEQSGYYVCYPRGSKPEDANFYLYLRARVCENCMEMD

Row | Binder | EC50 (read off the curve) [1] [nM] | binding result [2] | EC50 (read off the curve) [3] [nM] | Cytotoxic potency EC50 [4] [nM] | cytotoxicity improvement factor relative to parental TandAb [4] [fold] | EC50 (read off the curve) [5] [nM] | EC50 (read off the curve) [6] [nM]
1 | B1 | ~5 | no binding (tested: about 3300 nM) | ~6 | – | – | – | –
2 | B2 | – | – | – | 6.5 | 33.3 | 0.6 | 7
